{"source": "paper PMC12990809", "origin": "cited, not measured here", "assay_in_all_cases": "pulldown", "conditions_in_all_cases": "20 nM protein, 1.5 uM RNA pool; 20 mM HEPES pH 7.8, 70 mM KCl, 10 mM NaCl, 10% glycerol, 2 mM DTT, 0.1 ug/uL BSA; 30 min, 4 C (protocol of this paper; not …); cited from earlier work", "key": {"[1]": {"target": "T1, Rbp1-like (Drosophila melanogaster) (UniProt M9MS48)", "T1 sequence": "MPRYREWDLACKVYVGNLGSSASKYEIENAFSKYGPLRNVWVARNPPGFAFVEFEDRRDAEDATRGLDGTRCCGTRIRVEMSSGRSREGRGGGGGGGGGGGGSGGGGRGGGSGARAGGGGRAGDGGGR"}, "[2]": {"target": "Rbp9 (Drosophila melanogaster) (UniProt A2RVE5)", "sequence (A2RVE5 entry or part of it)": "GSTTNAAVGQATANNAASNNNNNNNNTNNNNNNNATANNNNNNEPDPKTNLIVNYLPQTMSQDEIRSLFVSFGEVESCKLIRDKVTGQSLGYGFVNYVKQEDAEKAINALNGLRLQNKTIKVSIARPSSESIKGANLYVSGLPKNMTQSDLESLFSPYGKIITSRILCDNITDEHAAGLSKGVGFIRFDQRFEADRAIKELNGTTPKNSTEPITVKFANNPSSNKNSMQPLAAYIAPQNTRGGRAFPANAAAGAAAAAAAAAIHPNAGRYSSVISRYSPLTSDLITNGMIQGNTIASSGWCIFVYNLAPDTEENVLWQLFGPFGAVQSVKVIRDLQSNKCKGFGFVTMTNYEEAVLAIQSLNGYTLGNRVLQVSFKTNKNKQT"}, "[3]": {"target": "T2, Syp G309D (Drosophila melanogaster) (UniProt Q7KSA0)", "T2 sequence": "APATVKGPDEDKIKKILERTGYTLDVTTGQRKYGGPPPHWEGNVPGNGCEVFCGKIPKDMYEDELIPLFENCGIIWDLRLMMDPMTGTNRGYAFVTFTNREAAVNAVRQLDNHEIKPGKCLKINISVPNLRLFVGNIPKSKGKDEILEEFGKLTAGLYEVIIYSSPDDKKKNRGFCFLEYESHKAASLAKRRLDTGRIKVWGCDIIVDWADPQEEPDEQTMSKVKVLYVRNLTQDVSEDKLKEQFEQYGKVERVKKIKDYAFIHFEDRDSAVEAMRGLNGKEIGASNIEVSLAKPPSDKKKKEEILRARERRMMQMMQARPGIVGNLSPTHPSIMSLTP"}, "[4]": {"target": "T3, cpo (Drosophila melanogaster) (UniProt Q01617)", "T3 sequence": "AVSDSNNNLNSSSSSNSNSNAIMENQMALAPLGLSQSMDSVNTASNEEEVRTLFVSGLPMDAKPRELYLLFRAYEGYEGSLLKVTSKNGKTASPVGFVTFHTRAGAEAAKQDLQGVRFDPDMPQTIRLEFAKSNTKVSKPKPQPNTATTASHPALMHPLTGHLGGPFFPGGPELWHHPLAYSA"}}, "data": [{"substance": "CAUCAUCG [RNAcompete motif RNCMPT00127]", "values": [{"measurement": "binding signal (z-score (mean of top ten 7-mers))", "setting": "[1]", "result": 10.7}]}, {"substance": "UUUNGUU [RNAcompete motif RNCMPT00132]", "values": [{"measurement": "binding signal (z-score (mean of top ten 7-mers))", "setting": "[2]", "result": 15.5}]}, {"substance": "AAAUU [RNAcompete motif RNCMPT00131]", "values": [{"measurement": "binding signal (z-score (mean of top ten 7-mers))", "setting": "[3]", "result": 13.5}]}, {"substance": "AGCAC [RNAcompete motif RNCMPT00133]", "values": [{"measurement": "binding signal (z-score (mean of top ten 7-mers))", "setting": "[4]", "result": 12.9}]}]}
